Laboratory results: patent US20240400627A1

Columns and labels:
[1] = target: Ganab (glucosidase II alpha-subunit), endogenous, mouse kidney (mouse) (UniProt Q8BHN3); assay: anti-HA immunoprecipitation from DTSSP-crosslinked crude mitochondria (contain MAMs), LC-MS/MS proteomics
[2] = target: Nicotinamide Nucleotide Transhydrogenase (NNT), endogenous, mouse kidney (mouse) (UniProt Q61941); assay: anti-HA immunoprecipitation from DTSSP-crosslinked crude mitochondria, LC-MS/MS proteomics, n=3 per group
Sequence of Nicotinamide Nucleotide Transhydrogenase (NNT), endogenous, mouse kidney (mouse) (Q61941 44-1086 limits assumed): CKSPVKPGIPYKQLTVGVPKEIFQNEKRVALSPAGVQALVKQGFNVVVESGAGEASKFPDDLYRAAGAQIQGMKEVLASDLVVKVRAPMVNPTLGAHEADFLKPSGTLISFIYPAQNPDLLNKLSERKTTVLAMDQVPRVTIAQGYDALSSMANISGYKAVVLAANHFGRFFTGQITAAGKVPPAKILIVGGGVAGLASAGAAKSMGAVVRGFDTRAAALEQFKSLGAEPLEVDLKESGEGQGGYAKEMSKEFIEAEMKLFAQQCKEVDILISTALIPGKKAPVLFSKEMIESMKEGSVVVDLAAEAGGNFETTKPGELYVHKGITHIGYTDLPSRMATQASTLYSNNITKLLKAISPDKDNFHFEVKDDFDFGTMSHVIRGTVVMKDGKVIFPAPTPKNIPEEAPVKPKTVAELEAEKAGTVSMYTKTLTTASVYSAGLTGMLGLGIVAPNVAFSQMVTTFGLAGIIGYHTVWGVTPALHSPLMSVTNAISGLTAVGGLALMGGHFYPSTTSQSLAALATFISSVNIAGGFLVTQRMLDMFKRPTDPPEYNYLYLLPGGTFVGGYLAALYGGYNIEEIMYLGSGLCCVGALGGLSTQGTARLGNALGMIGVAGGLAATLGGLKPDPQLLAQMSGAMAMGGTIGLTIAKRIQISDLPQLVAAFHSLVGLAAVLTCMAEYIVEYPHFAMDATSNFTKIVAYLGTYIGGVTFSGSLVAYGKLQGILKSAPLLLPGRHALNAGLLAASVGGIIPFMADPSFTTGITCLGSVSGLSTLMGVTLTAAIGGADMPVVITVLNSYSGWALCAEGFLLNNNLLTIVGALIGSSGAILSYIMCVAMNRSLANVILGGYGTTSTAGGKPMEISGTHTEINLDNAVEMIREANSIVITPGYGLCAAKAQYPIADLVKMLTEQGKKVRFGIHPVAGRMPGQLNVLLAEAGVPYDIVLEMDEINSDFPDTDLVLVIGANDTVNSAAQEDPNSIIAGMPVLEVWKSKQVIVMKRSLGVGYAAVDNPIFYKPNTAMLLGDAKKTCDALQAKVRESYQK

Sequence of 3FLAG-PC1-3HA (PC1 tagged with a 3xFLAG epitope at its N-terminus and a 3xHA sequence at its C-terminus, Pkd1F/H-BAC mouse) and its HA-tagged fragments (150-kDa CTF; PC1-CTT-3HA fragments of 17-37 kDa (O08852 3041-4293): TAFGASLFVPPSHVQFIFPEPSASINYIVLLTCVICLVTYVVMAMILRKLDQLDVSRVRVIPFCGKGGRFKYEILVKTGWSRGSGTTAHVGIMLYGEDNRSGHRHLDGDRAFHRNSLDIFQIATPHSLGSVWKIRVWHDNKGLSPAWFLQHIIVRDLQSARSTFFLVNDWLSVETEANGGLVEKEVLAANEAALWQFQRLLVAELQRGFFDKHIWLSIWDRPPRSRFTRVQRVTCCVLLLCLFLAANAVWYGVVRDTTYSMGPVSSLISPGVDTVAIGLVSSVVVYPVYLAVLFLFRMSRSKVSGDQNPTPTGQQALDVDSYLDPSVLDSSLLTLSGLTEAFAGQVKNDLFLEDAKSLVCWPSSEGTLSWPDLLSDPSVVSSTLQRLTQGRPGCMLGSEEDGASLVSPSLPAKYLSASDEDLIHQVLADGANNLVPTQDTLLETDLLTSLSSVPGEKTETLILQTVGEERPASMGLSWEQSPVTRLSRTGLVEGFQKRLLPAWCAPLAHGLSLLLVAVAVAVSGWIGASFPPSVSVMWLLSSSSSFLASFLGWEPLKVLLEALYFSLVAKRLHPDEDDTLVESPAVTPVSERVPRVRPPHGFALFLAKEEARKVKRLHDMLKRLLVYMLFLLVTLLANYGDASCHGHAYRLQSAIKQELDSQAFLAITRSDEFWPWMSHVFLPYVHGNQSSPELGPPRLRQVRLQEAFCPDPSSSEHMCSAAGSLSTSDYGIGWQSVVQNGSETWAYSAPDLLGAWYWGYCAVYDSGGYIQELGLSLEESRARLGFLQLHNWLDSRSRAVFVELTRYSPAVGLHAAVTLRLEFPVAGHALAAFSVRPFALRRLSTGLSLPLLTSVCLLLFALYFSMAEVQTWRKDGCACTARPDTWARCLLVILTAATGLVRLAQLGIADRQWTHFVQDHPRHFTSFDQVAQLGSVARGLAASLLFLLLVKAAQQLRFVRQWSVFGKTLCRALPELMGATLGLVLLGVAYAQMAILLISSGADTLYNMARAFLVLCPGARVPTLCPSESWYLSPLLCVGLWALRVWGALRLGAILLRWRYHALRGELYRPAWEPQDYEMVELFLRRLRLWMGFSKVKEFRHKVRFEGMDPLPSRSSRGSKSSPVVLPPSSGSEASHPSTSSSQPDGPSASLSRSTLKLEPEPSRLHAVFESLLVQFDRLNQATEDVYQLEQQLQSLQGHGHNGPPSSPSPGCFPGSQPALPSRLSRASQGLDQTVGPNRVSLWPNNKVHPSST
Sequence of Ganab (glucosidase II alpha-subunit), endogenous, mouse kidney (mouse) (Q8BHN3 33-944 limits assumed): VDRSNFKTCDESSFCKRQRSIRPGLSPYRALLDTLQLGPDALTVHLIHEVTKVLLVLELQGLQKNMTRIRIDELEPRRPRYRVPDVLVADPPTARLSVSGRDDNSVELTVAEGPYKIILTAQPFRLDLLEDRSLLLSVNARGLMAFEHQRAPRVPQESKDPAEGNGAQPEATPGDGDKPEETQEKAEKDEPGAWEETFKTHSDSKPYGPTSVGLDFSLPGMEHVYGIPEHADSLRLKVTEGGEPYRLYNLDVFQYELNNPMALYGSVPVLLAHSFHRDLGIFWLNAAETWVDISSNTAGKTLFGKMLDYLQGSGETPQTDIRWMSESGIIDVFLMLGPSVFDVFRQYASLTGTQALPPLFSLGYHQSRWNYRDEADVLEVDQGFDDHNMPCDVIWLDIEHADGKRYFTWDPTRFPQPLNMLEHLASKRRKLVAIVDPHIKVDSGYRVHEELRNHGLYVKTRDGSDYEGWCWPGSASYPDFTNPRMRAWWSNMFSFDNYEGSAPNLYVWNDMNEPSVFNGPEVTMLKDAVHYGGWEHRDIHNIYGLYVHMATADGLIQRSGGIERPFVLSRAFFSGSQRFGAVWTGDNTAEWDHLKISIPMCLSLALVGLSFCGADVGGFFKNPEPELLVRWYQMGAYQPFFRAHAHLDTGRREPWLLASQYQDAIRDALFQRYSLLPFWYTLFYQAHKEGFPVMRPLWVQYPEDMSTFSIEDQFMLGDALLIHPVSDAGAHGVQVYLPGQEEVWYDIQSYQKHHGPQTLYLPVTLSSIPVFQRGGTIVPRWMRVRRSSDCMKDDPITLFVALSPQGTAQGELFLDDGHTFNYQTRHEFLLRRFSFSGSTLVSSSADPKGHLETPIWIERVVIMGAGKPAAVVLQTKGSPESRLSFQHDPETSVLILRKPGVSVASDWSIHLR

fold enrichment in immunoprecipitates against WT [1]: 4 fold
fold amount of NNT co-immunoprecipitated against control WT immunoprecipitates [2]: > 16 fold
Substance: 3FLAG-PC1-3HA (PC1 tagged with a 3xFLAG epitope at its N-terminus and a 3xHA sequence at its C-terminus, Pkd1F/H-BAC mouse) and its HA-tagged fragments (150-kDa CTF; PC1-CTT-3HA fragments of 17-37 kDa) (from UniProt O08852 3041-4293)
